Test results from patent publication US20260167699A1 (Chugai, published 2026).

B1: GpH7-A5/GpH7-B3 variant G237_14T/GpL16-k0 (antibody, human IgG1, kappa)
heavy 1: not shown
heavy 2: not shown
light: DIVMTQSPLSLPVTPGEPASISCQASESLVHSNRNTYLHWYLQKPGQSPQLLIYKVSNRFSGVPDRFSGSGSGTDFTLKISRVEAEDVGVYYCSQNTHVPPTFGQGTKVEIERTVAAPSVFIFPPSDEQLKSGTASVVCLLNNFYPREAKVQWKVDNALQSGNSQESVTEQDSKDSTYSLSSTLTLSKADYEKHKVYACEVTHQGLSSPVTKSFNRGEC
notes: He Ab; copies: 1 + 1 + 2
B2: GpH7-A5/GpH7-B3 variant H268_19Q/GpL16-k0 (antibody, human IgG1, kappa)
heavy 1: not shown
heavy 2: not shown
light: B1 light
notes: He Ab; copies: 1 + 1 + 2
B3: GpH7-A5/GpH7-B3 variant H268_15Y/GpL16-k0 (antibody, human IgG1, kappa)
heavy 1: not shown
heavy 2: not shown
light: B1 light
notes: He Ab; copies: 1 + 1 + 2
B4: GpH7-A5/GpH7-B3 variant H268_09D/GpL16-k0 (antibody, human IgG1, kappa)
heavy 1: not shown
heavy 2: not shown
light: B1 light
notes: He Ab; copies: 1 + 1 + 2
B5: GpH7-A5/GpH7-B3 variant I332_04F/GpL16-k0 (antibody, human IgG1, kappa)
heavy 1: not shown
heavy 2: not shown
light: B1 light
notes: He Ab; copies: 1 + 1 + 2
B6: GpH7-A5/GpH7-B3 variant H268_20W/GpL16-k0 (antibody, human IgG1, kappa)
heavy 1: not shown
heavy 2: not shown
light: B1 light
notes: He Ab; copies: 1 + 1 + 2
B7: GpH7-A5/GpH7-B3 variant H268_03V/GpL16-k0 (antibody, human IgG1, kappa)
heavy 1: not shown
heavy 2: not shown
light: B1 light
notes: He Ab; copies: 1 + 1 + 2
B8: GpH7-A5/GpH7-B3 variant I332_06M/GpL16-k0 (antibody, human IgG1, kappa)
heavy 1: not shown
heavy 2: not shown
light: B1 light
notes: He Ab; copies: 1 + 1 + 2
B9: GpH7-A5/GpH7-B3 variant I332_02A/GpL16-k0 (antibody, human IgG1, kappa)
heavy 1: not shown
heavy 2: not shown
light: B1 light
notes: He Ab; copies: 1 + 1 + 2
B10: GpH7-A5/GpH7-B3 variant H268_06M/GpL16-k0 (antibody, human IgG1, kappa)
heavy 1: not shown
heavy 2: not shown
light: B1 light
notes: He Ab; copies: 1 + 1 + 2
B11: GpH7-A5/GpH7-B3 variant I332_03V/GpL16-k0 (antibody, human IgG1, kappa)
heavy 1: not shown
heavy 2: not shown
light: B1 light
notes: He Ab; copies: 1 + 1 + 2
B12: GpH7-A5/GpH7-B3 variant H268_11K/GpL16-k0 (antibody, human IgG1, kappa)
heavy 1: not shown
heavy 2: not shown
light: B1 light
notes: He Ab; copies: 1 + 1 + 2
B13: GpH7-A5/GpH7-B3 variant H268_13S/GpL16-k0 (antibody, human IgG1, kappa)
heavy 1: not shown
heavy 2: not shown
light: B1 light
notes: He Ab; copies: 1 + 1 + 2
B14: GpH7-A5/GpH7-B3 variant H268_10E/GpL16-k0 (antibody, human IgG1, kappa)
heavy 1: not shown
heavy 2: not shown
light: B1 light
notes: He Ab; copies: 1 + 1 + 2
B15: GpH7-A5/GpH7-B3 variant H268_14T/GpL16-k0 (antibody, human IgG1, kappa)
heavy 1: not shown
heavy 2: not shown
light: B1 light
notes: He Ab; copies: 1 + 1 + 2
B16: GpH7-A5/GpH7-B3 variant H268_01G/GpL16-k0 (antibody, human IgG1, kappa)
heavy 1: not shown
heavy 2: not shown
light: B1 light
notes: He Ab; copies: 1 + 1 + 2
B17: GpH7-A5/GpH7-B3 variant H268_08L/GpL16-k0 (antibody, human IgG1, kappa)
heavy 1: not shown
heavy 2: not shown
light: B1 light
notes: He Ab; copies: 1 + 1 + 2
B18: GpH7-A5/GpH7-B3 variant H268_02A/GpL16-k0 (antibody, human IgG1, kappa)
heavy 1: not shown
heavy 2: not shown
light: B1 light
notes: He Ab; copies: 1 + 1 + 2
B19: GpH7-A5/GpH7-B3 variant H268_04F/GpL16-k0 (antibody, human IgG1, kappa)
heavy 1: not shown
heavy 2: not shown
light: B1 light
notes: He Ab; copies: 1 + 1 + 2
B20: GpH7-A5/GpH7-B3 variant H268_07I/GpL16-k0 (antibody, human IgG1, kappa)
heavy 1: not shown
heavy 2: not shown
light: B1 light
notes: He Ab; copies: 1 + 1 + 2
B21: GpH7-A5/GpH7-B3 variant H268_18N/GpL16-k0 (antibody, human IgG1, kappa)
heavy 1: not shown
heavy 2: not shown
light: B1 light
notes: He Ab; copies: 1 + 1 + 2
B22: GpH7-A5/GpH7-B3 variant H268_12R/GpL16-k0 (antibody, human IgG1, kappa)
heavy 1: not shown
heavy 2: not shown
light: B1 light
notes: He Ab; copies: 1 + 1 + 2
B23: GpH7-A5/GpH7-B3 variant I332_10E/GpL16-k0 (antibody, human IgG1, kappa)
heavy 1: not shown
heavy 2: not shown
light: B1 light
notes: He Ab; copies: 1 + 1 + 2

Target: T1, FcγRIIIa extracellular domain, C-terminal His tag (human, UniProt P08637 17-208)
T1 construct: extracellular domain; also called 3a
Assay: SPR, binding activity relative to GpH7-A5/GpH7-B3/GpL16-k0 (=100)

T1 sequence (P08637 other isoform, or with tags, fused parts or gaps): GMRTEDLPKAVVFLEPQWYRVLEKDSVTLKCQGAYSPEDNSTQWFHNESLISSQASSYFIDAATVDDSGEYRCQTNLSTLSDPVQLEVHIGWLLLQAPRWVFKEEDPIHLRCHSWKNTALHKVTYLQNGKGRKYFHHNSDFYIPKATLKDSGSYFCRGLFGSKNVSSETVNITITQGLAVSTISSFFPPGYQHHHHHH

He/Con 3a [%] | Binder
50.5 | B1
113 | B2
96.5 | B3
195 | B4
89.3 | B5
82 | B6
91.4 | B7
92.5 | B8
103 | B9
79.5 | B10
85.2 | B11
81.6 | B12
121 | B13
184 | B14
90.3 | B15
95.7 | B16
75.9 | B17
121 | B18
96 | B19
84.1 | B20
103 | B21
76 | B22
213 | B23
